We go through three substances from publication doi:10.1101/2021.06.28.21259671.

In assay [1] the target is chimeric secretory component (CSC) of the polymeric immunoglobulin receptor (rabbit/human chimera). Description: lateral flow assay.
Assay [2] has the same target. Description: SEC. (In gel filtration, larger molecules generally elute earlier.)

In turn, “CB6-dIgA1 (dimeric IgA1 form of the SARS-CoV-2 specific monoclonal antibody CB6, with J chain)” gave a limit of detection in assay [1] of 0.123 µg/mL.

With “CB6-dIgA2 (dimeric IgA2 form of the SARS-CoV-2 specific monoclonal antibody CB6, with J chain)”, the limit of detection in assay [1] stood at 0.128 µg/mL.

Broadly, the stoichiometry N is the number of molecules, sites or subunits per partner or assembly. In assay [2], “chimeric secretory component (CSC) of the polymeric immunoglobulin receptor” gave a stoichiometry N of 2.
